Experimental data reported in patent US20250340604A1 (ENKEFALOS BIOSCIENCES, published 2025).

What was measured:
Assay in all cases: phage selection and phage ELISA on coated receptor ECD
[1] = molecular target: T1, human HER3/ErbB3 (Hu ErbB3), recombinant extracellular domain (human, UniProt P21860 20-643)
T1 construct: extracellular domain; Recombinant Fc fusion (R&D Systems) or His-tagged (Sino Biologicals)

[2] = molecular target: T2, human leptin receptor (Hu ObR), recombinant extracellular domain (human, UniProt P48357 22-839)
T2 construct: extracellular domain; Recombinant Fc fusion (R&D Systems) or His-tagged (Sino Biologicals)
T2 sequence (looked up): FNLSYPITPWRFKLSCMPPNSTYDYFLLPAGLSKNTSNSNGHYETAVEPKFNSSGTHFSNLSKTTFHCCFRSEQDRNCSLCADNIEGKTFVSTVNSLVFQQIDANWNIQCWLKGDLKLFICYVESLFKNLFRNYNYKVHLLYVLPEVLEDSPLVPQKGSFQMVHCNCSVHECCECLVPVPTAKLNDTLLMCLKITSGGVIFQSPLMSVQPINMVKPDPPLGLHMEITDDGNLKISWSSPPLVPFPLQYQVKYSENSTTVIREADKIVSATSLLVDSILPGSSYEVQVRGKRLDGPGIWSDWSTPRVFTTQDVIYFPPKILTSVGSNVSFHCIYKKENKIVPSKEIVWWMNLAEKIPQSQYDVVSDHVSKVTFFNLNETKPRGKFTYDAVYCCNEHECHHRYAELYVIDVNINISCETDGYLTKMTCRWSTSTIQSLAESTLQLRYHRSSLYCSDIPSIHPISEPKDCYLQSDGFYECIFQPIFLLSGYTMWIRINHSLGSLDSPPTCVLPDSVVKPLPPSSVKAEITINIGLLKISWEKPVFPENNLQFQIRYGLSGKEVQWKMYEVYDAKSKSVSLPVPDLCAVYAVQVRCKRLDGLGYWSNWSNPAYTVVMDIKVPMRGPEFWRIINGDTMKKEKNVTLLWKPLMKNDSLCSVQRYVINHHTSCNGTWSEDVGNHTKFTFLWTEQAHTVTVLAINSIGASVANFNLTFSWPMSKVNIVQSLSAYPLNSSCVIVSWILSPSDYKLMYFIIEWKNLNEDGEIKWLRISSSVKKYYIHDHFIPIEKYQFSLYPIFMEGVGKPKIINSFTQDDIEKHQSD

[3] = molecular target: T3, human transferrin receptor (Hu TrfR), recombinant extracellular domain (human, UniProt P02786 89-760)
T3 construct: extracellular domain; Recombinant Fc fusion (R&D Systems) or His-tagged (Sino Biologicals); also called human TfR
T3 sequence (P02786 89-760): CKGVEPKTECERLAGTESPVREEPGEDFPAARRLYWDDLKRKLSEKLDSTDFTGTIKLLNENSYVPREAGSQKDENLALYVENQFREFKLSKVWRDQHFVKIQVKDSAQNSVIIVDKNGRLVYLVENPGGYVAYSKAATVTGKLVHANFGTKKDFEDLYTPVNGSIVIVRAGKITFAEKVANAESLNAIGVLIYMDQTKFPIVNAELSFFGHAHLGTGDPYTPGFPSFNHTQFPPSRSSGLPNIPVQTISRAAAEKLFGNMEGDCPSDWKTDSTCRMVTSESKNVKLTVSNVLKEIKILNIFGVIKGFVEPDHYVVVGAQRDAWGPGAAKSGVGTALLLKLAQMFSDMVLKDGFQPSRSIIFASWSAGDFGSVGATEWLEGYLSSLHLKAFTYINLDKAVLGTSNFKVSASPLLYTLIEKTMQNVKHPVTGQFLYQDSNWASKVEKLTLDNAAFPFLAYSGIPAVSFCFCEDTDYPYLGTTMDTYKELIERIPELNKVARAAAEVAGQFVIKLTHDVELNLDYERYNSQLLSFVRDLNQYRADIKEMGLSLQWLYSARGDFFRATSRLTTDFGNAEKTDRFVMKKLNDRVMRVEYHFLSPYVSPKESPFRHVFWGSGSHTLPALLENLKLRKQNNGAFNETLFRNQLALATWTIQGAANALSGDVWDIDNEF

[4] = molecular target: T4, human receptor for advanced glycation-end products (Hu RAGE), recombinant extracellular domain (human, UniProt Q15109 23-342)
T4 construct: extracellular domain; Recombinant Fc fusion (R&D Systems) or His-tagged (Sino Biologicals)
T4 sequence (Q15109 23-342): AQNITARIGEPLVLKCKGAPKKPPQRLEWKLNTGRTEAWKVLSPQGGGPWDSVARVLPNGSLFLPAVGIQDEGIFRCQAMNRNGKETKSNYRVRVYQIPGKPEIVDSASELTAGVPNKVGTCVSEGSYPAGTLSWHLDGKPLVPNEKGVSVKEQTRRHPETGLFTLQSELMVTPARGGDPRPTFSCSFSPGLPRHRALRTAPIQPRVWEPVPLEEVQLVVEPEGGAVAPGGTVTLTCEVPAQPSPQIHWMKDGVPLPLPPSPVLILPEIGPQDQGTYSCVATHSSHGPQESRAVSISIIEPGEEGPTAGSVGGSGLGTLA

[5] = molecular target: T5, mouse transferrin receptor (Mu TrfR), recombinant extracellular domain (mouse, UniProt Q62351 89-763)
T5 construct: extracellular domain; Recombinant Fc fusion (R&D Systems) or His-tagged (Sino Biologicals)
T5 sequence (Q62351 89-763): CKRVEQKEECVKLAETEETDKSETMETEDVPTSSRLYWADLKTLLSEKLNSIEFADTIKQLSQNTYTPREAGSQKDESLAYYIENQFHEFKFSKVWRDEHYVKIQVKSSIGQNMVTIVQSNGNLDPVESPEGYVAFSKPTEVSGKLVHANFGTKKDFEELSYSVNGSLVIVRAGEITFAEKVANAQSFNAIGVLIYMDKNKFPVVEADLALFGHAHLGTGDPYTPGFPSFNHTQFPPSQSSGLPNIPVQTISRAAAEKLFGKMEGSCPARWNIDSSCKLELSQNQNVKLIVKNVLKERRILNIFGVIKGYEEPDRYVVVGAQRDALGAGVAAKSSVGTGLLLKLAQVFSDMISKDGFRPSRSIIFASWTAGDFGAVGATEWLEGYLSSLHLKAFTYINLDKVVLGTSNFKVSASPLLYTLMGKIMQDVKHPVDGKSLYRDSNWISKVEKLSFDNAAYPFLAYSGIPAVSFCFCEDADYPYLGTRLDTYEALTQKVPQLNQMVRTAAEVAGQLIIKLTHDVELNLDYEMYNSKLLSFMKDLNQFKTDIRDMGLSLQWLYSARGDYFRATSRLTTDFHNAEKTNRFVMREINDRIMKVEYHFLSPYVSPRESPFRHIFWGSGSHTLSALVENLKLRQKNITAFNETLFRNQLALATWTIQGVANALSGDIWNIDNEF

GGVCWWDKWVFPISRQCRRDSDCPGACICRGNGYCGSGSD (designed binder) [CYC16]
binding result [1]: binds

GGVCPWPKWTYMAQKYCRRDSDCPGACICRGNGYCGSGSD (designed binder) [CYC1]
binding result [2]: binds

GGVCGWFYWYHKWFGPCRRDSDCPGACICRGNGYCGSGSD (designed binder) [CYC6]
binding result [2]: binds

GGVCEYFRWHLDSWGECRRDSDCPGACICRGNGYCGSGSD (designed binder) [CYC40]
binding result [3]: binds

GGVCLYEAWHLPSWGQCRRDSDCPGACICRGNGYCGSGSD (designed binder) [CYC44]
binding result [3]: binds

GGVCWRWTPKIWVLEEMSSCSDCPGACICRGNGYCGSGSD (designed binder) [CYC4]
binding result [2]: binds

GGVCQSFFWWHSWFGVCRRDSDCPGACICRGNGYCGSGSD (designed binder) [CYC2]
binding result [2]: binds

GGVCVSNFWFMHWFGVCRRDSDCPGACICRGNGYCGSGSD (designed binder) [CYC29]
binding result [4]: binds

GGVCPTQTWWFWLPAQCRRDSDCPGACICRGNGYCGSGSD (designed binder) [CYC10]
binding result [2]: binds

GGVCKALWYMGWGTCRRDSDCPGACICRGNGYCGSGSD (designed binder) [CYC24]
binding result [3]: binds

GGVCKQNWLPGWGTCRRDSDCPGACICRGNGYCGSGSD (designed binder) [CYC25]
binding result [3]: binds

GGVCDPRWLAGWGSCRRDSDCPETCICRGNGYCASGYD (designed binder) [CYC18]
binding result [3]: binds

GGVCSDRWDWMFATWLCRRDSDCPGACICRGNGYCGSGSD (designed binder) [CYC8]
binding result [2]: binds

GGVCQTVFPMWPWYQLCRRDSDCPGACICRGNGYCGSGSD (designed binder) [CYC22]
binding result [5]: binds

GGVCMHNSASHNIQMQCRRDSDCPGACICRGNGYCGSGSD (designed binder) [CYC21]
binding result [5]: binds

GGVCFLWFWYGFSRTLCRRDSDCPGACICRGNGYCGSGSD (designed binder) [CYC14]
binding result [2]: binds

GGVCTVWPFVWWGGVPCRRDSDCPGACICRGNGYCGSGSD (designed binder) [CYC19]
binding result [5]: binds

GGVCHVGYWWHIWMGACRRDSDCPGACICRGNGYCGSGSD (designed binder) [CYC28]
binding result [4]: binds

GGVCRHSYSQIPLWCRRDSDCPGACICRGNGYCGSGSD (designed binder) [CYC15]
binding result [1]: binds

GGVCRYQEWHMESWGSCRRDSDCPGACICRGNGYCGSGSD (designed binder) [CYC43]
binding result [3]: binds

GGVCHSQFWPWEWYQFCRRDSDCPGACICRGNGYCGSGSD (designed binder) [CYC3]
binding result [2]: binds

GGVCQMVSEHWVARVWCRRDSDCPGACICRGNGYCGSGSD (designed binder) [CYC45]
binding result [3]: binds

GGVCAYVHDWYHHVMYCRRDSDCPGACICRGNGYCGSGSD (designed binder) [CYC20]
binding result [5]: binds

GGVCLVSQWHIESWGQCRRDSDCPGACICRGNGYCGSGSD (designed binder) [CYC41]
binding result [3]: binds

GGVCEWSDWFPYEFLFCRRDSDCPGACICRGNGYCGSGSD (designed binder) [CYC12]
binding result [2]: binds

GGVCHNLFVIESILFWCRRDSDCPGACICRGNGYCGSGSD (designed binder) [CYC23]
binding result [5]: binds

GGVCYVDWPWTLTLWYCRRDSDCPGACICRGNGYCGSGSD (designed binder) [CYC11]
binding result [2]: binds

GGVCPTAMWFDWFTVYCRRDSDCPGACICRGNGYCGSGSD (designed binder) [CYC13]
binding result [2]: binds

GGVCVQPWYSWFMEQGCRRDSDCPGACICRGNGYCGSGSD (designed binder) [CYC9]
binding result [2]: binds

GGVCWQGMMLFFVGEKCRRDSDCPGACICRGNGYCGSGSD (designed binder) [CYC5]
binding result [2]: binds

GGVCQEERWHMHSWGPCRRDSDCPGACICRGNGYCGSGSD (designed binder) [CYC42]
binding result [3]: binds

GGVCYDWGWFWPFEQYCRRDSDCPGACICRGNGYCGSGSD (designed binder) [CYC7]
binding result [2]: binds
